Source: PMC5104516, “TRIM28 regulates the nuclear accumulation and toxicity of both alpha-synuclein and tau” (eLife, 2016)

Assays:
[1] = target: α-Syn:nYFP (UniProt P37840 1-140); test: split reporter (BiFC, NanoBiT); split-YFP; stable cell lines with α-Syn or tau fused to the N-terminal portion of YFP (bait), transfected with 250 ng prey plasmid with the C-terminal portion of YFP; fluorescence by flow cytometry at 48 hr and microscopy up to 72 hr; details: partners not purified
[2] = target: T1, tau:nYFP (UniProt P10636-8 1-441); test: as above; details: partners not purified
T1 construct: microtubule associated protein tau; Plasmids and their construction are in Supplementary file 2; also called nYFP-tau; tau fused to an N-terminal moiety of YFP
T1 sequence (P10636 other isoform, or with tags, fused parts or gaps): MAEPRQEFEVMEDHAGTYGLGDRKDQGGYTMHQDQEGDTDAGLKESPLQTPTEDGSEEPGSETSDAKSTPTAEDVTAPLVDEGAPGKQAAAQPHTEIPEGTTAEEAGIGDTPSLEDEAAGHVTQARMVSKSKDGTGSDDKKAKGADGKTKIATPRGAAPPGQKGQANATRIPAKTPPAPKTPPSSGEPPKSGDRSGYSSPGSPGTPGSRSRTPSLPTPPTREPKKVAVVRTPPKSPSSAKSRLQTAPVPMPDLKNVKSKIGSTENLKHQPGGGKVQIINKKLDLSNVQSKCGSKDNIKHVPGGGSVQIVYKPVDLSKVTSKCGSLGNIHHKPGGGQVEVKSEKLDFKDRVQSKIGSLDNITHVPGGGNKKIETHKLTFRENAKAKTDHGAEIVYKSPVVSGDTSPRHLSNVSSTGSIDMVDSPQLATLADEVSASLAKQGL

fold lower BiFC signal than with tau as prey [1]: ~8 fold
fold lower BiFC signal than with tau as prey [2]: ~8 fold
B1: TRIM28:cYFP (natural protein, human, UniProt Q13263 1-835, looked up)
chain: MAASAAAASAAAASAASGSPGPGEGSAGGEKRSTAPSAAASASASAAASSPAGGGAEALELLEHCGVCRERLRPEREPRLLPCLHSACSACLGPAAPAAANSSGDGGAAGDGTVVDCPVCKQQCFSKDIVENYFMRDSGSKAATDAQDANQCCTSCEDNAPATSYCVECSEPLCETCVEAHQRVKYTKDHTVRSTGPAKSRDGERTVYCNVHKHEPLVLFCESCDTLTCRDCQLNAHKDHQYQFLEDAVRNQRKLLASLVKRLGDKHATLQKSTKEVRSSIRQVSDVQKRVQVDVKMAILQIMKELNKRGRVLVNDAQKVTEGQQERLERQHWTMTKIQKHQEHILRFASWALESDNNTALLLSKKLIYFQLHRALKMIVDPVEPHGEMKFQWDLNAWTKSAEAFGKIVAERPGTNSTGPAPMAPPRAPGPLSKQGSGSSQPMEVQEGYGFGSGDDPYSSAEPHVSGVKRSRSGEGEVSGLMRKVPRVSLERLDLDLTADSQPPVFKVFPGSTTEDYNLIVIERGAAAAATGQPGTAPAGTPGAPPLAGMAIVKEEETEAAIGAPPTATEGPETKPVLMALAEGPGAEGPRLASPSGSTSSGLEVVAPEGTSAPGGGPGTLDDSATICRVCQKPGDLVMCNQCEFCFHLDCHLPALQDVPGEEWSCSLCHVLPDLKEEDGSLSLDGADSTGVVAKLSPANQRKCERVLLALFCHEPCRPLHQLATDSTFSLDQPGGTLDLTLIRARLQEKLSPPYSSPQEFAQDVGRMFKQFNKLTEDKADVQSIIGLQRFFETRMNEAFGDTKFSAVLVEPPPMSLPGAGLSSQELSGGPGDGP
notes: Tripartite motif-containing 28 (TRIM28); Plasmids and their construction are in Supplementary file 2; also called TRIM28 fused to a C-terminal moiety of YFP; Prey
